From patent US20150071927A1 (UNIVERSITY OF HONG KONG, published 2015)

Tests used:
[1] = biological target: T1, membrane-associated IGF-IR on SKOV-3 cells (human, UniProt P08069 31-936); experiment: flow cytometry on SKOV-3 cells, MFI against antibody concentration
Method: (§1) MCF-7 or SKOV-3 cells were detached using enzyme-free cell-disassociation buffer (Invitrogen), washed twice with PBS, and incubated at 4° C. for 2 h with antibodies in fluorescence-activated cell sorting (FACS) buffer (1% FBS in PBS). Cell surface bound antibodies were detected using PE conjugated to anti-human Fc by incubation at 4° C. for 1 h followed by washing twice with FACS buffer and fixation with 2% paraformaldehyde in FACS buffer. The stained cells were analyzed with a BD flow cytometer and FlowJo software.

[2] = biological target: T1, membrane-associated IGF-IR on SKOV-3 …; experiment: flow cytometry on SKOV-3 cells
Method: as §1

[3] = biological target: T2, recombinant IGF-IR ectodomain (His-tagged) (human, UniProt P08069 31-935); experiment: indirect ELISA, IGF-IR ectodomain coated, biotinylated HER2 ectodomain detected with streptavidin-HRP
T2 construct: also called recombinant IGF-IR (coated); recombinant IGF-IR ectodomains
Method: Recombinant ectodomains of IGF-IR or HER2 ([…] in both cases) were coated on 96-well high-binding ELISA plates at 4° C. overnight. The plates were washed and blocked with 3% BSA in PBS at 37° C. for 2 h. Two-fold serially diluted mAb Herceptin or m590 were added to the wells and the bound mAbs were detected by HRP conjugated anti-human Fc as secondary antibody and TMB substrate. Optical density at 450 nm (OD450 nm) was measured after color development at RT for 30 min. In the case of Bi-Ab, recombinant IGF-IR ectodomains were coated on the plates. Following addition of 2-fold serially diluted Bi-Ab and incubation at RT for 2 h, plates were washed and biotinylated HER2 ectodomain (2 μg/ml) was added to each well. Bound HER2 ectodomains were detected by HRP conjugated streptavidin and TMB substrate.
Following addition of the anti-HER2/anti-IGF-IR antibodies to recombinant IGF-IR-coated plates biotinylated recombinant HER2 ectodomains were added. Bound HER2 ectodomains were detected by HRP conjugated streptavidin and TMB substrate.

T1 sequence (P08069 31-936 limits assumed): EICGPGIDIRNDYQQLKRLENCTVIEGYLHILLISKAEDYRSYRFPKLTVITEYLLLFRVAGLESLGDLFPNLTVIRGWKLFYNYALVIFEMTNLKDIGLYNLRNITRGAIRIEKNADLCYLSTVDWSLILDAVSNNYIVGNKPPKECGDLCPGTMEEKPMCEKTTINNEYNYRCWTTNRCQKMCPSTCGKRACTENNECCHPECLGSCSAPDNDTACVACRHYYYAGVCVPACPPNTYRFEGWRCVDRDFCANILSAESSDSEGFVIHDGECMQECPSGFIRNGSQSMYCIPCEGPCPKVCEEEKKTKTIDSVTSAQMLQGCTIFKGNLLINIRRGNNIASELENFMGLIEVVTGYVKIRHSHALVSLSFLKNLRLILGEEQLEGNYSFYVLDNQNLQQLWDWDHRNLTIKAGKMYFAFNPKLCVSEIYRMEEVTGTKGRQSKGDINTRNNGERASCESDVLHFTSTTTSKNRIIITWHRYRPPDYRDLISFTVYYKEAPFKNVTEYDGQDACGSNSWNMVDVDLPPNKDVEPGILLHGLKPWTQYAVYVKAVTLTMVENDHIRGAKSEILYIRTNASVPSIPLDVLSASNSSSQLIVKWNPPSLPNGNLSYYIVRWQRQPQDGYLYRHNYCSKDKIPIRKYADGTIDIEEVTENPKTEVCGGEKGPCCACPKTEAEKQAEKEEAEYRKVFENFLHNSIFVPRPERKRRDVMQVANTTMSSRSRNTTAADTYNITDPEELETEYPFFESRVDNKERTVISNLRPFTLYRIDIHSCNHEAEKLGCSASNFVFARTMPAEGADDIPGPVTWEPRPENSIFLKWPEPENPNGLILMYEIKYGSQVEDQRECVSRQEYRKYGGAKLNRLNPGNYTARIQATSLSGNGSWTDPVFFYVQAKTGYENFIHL
T2 sequence (P08069 31-935): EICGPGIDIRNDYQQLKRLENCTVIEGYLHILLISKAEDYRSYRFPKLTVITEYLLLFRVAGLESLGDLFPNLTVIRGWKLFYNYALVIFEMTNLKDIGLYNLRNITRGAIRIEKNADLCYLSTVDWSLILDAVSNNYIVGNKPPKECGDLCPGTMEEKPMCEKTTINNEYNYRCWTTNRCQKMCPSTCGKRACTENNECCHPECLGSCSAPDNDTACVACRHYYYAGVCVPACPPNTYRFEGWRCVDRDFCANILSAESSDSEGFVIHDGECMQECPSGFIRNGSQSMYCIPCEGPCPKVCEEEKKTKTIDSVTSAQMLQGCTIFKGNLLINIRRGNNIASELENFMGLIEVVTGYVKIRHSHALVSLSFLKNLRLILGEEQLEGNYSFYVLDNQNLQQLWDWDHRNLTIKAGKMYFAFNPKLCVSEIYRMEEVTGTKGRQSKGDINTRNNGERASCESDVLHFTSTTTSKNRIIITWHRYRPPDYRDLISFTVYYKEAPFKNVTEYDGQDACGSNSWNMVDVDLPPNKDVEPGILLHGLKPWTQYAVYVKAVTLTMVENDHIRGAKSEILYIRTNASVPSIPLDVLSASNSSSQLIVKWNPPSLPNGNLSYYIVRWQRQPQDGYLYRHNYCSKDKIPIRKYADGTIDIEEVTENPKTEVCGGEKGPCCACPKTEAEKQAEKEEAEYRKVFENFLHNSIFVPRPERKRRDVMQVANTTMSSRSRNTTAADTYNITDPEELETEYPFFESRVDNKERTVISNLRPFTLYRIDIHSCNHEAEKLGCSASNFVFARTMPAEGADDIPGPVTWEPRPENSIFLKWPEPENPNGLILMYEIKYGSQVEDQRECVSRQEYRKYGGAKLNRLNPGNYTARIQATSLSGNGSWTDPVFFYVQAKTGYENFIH

Row | Binder | binding result [1] | binding result [2] | binding result [3]
1 | m590 anti-IGF-IR mouse/human chimeric antibody (antibody, human IgG1, kappa, V domains shown, also called human/mouse chimeric mAb m590) VH: EVQLQQSGPELEQPGSSVKISCKASGYSFTAYYMHWVKQSHGKSLEWIGRINPDNGGNSYNQKFKGKAILTVDKSSNTAYMELRSLTSEDSAVYYCAKSTSYDYDGYWYFDVWGAGTTVTVSS VL: QIVLTQSPAIMSASPGEKVTITCSASSSVSYIHWFQQKPGTSPKVWIYGTSNLASGVPARFTGSGSGTSYSLTISRMEAEDAATYYCQQRSSYPFTFGSGTKLEIKR | binds | – | –
2 | anti-HER2/anti-IGF-IR bi-specific antibody (Bi-Ab) (bispecific antibody, human IgG1, kappa, also called anti-IGF-IR/anti-HER2 hybrid IgG; copies: 1 + 1 + 1 + 1) heavy 1: not shown light 1: not shown heavy 2: not shown light 2: QIVLTQSPAIMSASPGEKVTITCSASSSVSYIHWFQQKPGTSPKVWIYGTSNLASGVPARFTGSGSGTSYSLTISRMEAEDAATYYCQQRSSYPFTFGSGTKLEIKRTVAAPSVFIFPPSDEQLKSGTASVVCLLNNFYPREAKVQWKVDNALQSGNSQESVTEQDSKDSTYSLSSTLTLSKADYEKHKVYACEVTHQGLSLPVTKSLNRREC | – | binds | binds
